Test results reported in patent publication US9616120B2, “Monoclonal antibodies directed to CD20” (VET THERAPEUTICS, INC., priority 2010, dated 2017).

T1: recombinant canine CD20 (Canis lupus familiaris, UniProt Q3C2E2, A201T/C77Y/G273E/L198V)
T1 construct: are transfected with an expression vector encoding the full-length canine CD20 protein; expressed in transfected cells; host or cells: CHO cells (CHO-DG44)
T1 sequence (Q3C2E2 1-297 C77Y/L198V/A201T/G273E): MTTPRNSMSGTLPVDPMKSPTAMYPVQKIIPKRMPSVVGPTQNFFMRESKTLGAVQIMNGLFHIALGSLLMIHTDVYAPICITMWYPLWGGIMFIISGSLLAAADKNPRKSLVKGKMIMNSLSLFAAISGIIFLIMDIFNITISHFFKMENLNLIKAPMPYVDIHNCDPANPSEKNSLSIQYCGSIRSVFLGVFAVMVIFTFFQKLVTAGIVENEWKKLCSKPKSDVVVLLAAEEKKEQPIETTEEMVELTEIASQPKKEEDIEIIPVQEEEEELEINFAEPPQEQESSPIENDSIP

T2: recombinant canine CD20 expressed in HEK cells (Canis lupus familiaris, UniProt Q3C2E2, A201T/C77Y/G273E/L198V)
T2 construct: expressed in transfected cells; host or cells: HEK cells
T2 sequence (Q3C2E2 1-297 C77Y/L198V/A201T/G273E): T1 sequence (Q3C2E2 1-297 C77Y/L198V/A201T/G273E)

B1: VET 135 X VET 260: antibody variant: light chain VET135 (CD20-2 LC + VET101) with heavy chain VET260 (VET259 CD20-2 HC FR4T + VET201) (antibody)
heavy: QVQLQQSRAELVRPGASVTLSCKPSGYTFTDYEVHWVKQTPVHGLEWIGAIDPETGGTADNQKFKGKAILTADKSSSTAYMELRSLTSEDSAVYYCTNFVDVWGTGTTVTVSSASTTAPSVFPLAPSCGSQSGSTVALACLVSGYFPEPVTVSWNSGSLTSGVHTFPSVLQSSGLYSLSSMVTVPSSRWPSETFTCNVAHPASKTKVDKPVPKRENGRVPRPPDCPKCPAPEMLGGPSVFIFPPKPKDTLLIARTPEVTCVVVDLDPEDPEVQISWFVDGKQMQTAKTQPREEQFNGTYRVVSVLPIGHQDWLKGKQFTCKVNNKALPSPIERTISKARGQAHQPSVYVLPPSREELSKNTVSLTCLIKDFFPPDIDVEWQSNGQQEPESKYRTTPPQLDEDGSYFLYSKLSVDKSRWQRGDTFICAVMHEALHNHYTQKSLSHSPGK
light: DVVMSQSPSSLAVSVGEKVTMSCKSSQSLLYSGNQKNYLAWYQQKPGQSPRLLIYWASTRESGVPDRFTGSGSGTDFTLTISSVKAEDLAVFYCQQYYNYPLTFGAGTKLELKGQPKASPSVTLFPPSSEELGANKATLVCLISDFYPSGVTVAWKADGSPITQGVETTKPSKQSNNKYAASSYLSLTPDKWKSHSSFSCLVTHEGSTVEKKVAPAECS
B2: VET 133 X VET 257: antibody variant: light chain VET133 (VET132 CD20-1 LC + VET101) with heavy chain VET257 (VET256 CD20-1 HC + VET201) (antibody)
heavy: EIQLQQSGAELVKPGASVKISCKASGYTFTDYYINWVKQRPGQGLEWIGKIGPGSGRTYYNEKFKGKATLTADKSSSTAYIQISSLTSEDSAVYFCAVLSWGQGTTLTVSSASTTAPSVFPLAPSCGSQSGSTVALACLVSGYFPEPVTVSWNSGSLTSGVHTFPSVLQSSGLYSLSSMVTVPSSRWPSETFTCNVAHPASKTKVDKPVPKRENGRVPRPPDCPKCPAPEMLGGPSVFIFPPKPKDTLLIARTPEVTCVVVDLDPEDPEVQISWFVDGKQMQTAKTQPREEQFNGTYRVVSVLPIGHQDWLKGKQFTCKVNNKALPSPIERTISKARGQAHQPSVYVLPPSREELSKNTVSLTCLIKDFFPPDIDVEWQSNGQQEPESKYRTTPPQLDEDGSYFLYSKLSVDKSRWQRGDTFICAVMHEALHNHYTQKSLSHSPGK
light: DVQITQTPLTLSVTFGQPASISCKSSQSLLKSDGRTYLNWLLQRPGQSPKRLLYLVSKLDSGVPDRFTGSGSGTDFTLKISRVEAEDLGVYYCWQGTHFPQTFGGGTKLEIKGQPKASPSVTLFPPSSEELGANKATLVCLISDFYPSGVTVAWKADGSPITQGVETTKPSKQSNNKYAASSYLSLTPDKWKSHSSFSCLVTHEGSTVEKKVAPAECS
B3: CD20-6: anti-canine CD20 antibody; full length HC SEQ ID NO. 42, LC SEQ ID NO. 43 (antibody)
heavy: EIQLQQSGAELVRPGASVTLSCKASGYTFTDYEMHWVKQTPVHGLEWIGGIDPETGGTAYNQKFKGKAILTADKSSSTVYMELRSLTSEDSAVYYCTRDYGTSGYWGQGTLVTVSSASTTAPSVFPLAPSCGSQSGSTVALACLVSGYFPEPVTVSWNSGSLTSGVHTFPSVLQSSGLYSLSSMVTVPSSRWPSETFTCNVAHPASKTKVDKPVPKRENGRVPRPPDCPKCPAPEMLGGPSVFIFPPKPKDTLLIARTPEVTCVVVDLDPEDPEVQISWFVDGKQMQTAKTQPREEQFNGTYRVVSVLPIGHQDWLKGKQFTCKVNNKALPSPIERTISKARGQAHQPSVYVLPPSREELSKNTVSLTCLIKDFFPPDIDVEWQSNGQQEPESKYRTTPPQLDEDGSYFLYSKLSVDKSRWQRGDTFICAVMHEALHNHYTQKSLSHSPGK
light: DVVVTQTPLSLPVSFGDQVSISCRSSQSLANSYGNTYLSWYLHKPGQSPQLLIYGISNRFSGVPDRFSGSGSGTDFTLKISRVEAEDLGVYFCSQSTHVPWTFGGGTHLTVLGQPKASPSVTLFPPSSEELGANKATLVCLISDFYPSGVTVAWKADGSPITQGVETTKPSKQSNNKYAASSYLSLTPDKWKSHSSFSCLVTHEGSTVEKKVAPAECS
modifications: canis familiaris/mus musculus
notes: anti-canine CD20 antibody; 43

What was measured:
lymphoma cells = experiment: MTT proliferation assay on lymphoma cells; assay type: cell-based; details: 72 h; for percentage of reduction of cell proliferation, Doxorubicin 6.6 nM: Mab 10 ug/mL plus Doxorubicin 6.6 nM; for percentage of reduction of cell proliferation, Doxorubicin 66 nM: Mab 10 ug/mL plus Doxorubicin 66 nM; for percentage of reduction of cell proliferation, Doxorubicin 0 nM: Mab 10 ug/mL, triplicate
Experimental: Lymphoma cells are grown in RPMI medium with FBS 10% in 5% carbon dioxide (CO2) at 37° C. Cells are seeded at 5,000 cells/well in 96-well plates in medium with 5% FBS. Cells are treated with the antibody variants or isotype controls (10 μg/ml) and incubated for 72 h at 37° C. in a CO2 incubator. Ten (10) μL, MTT solution is added to each well and incubated at 37° C. for 4 h according to the manufacturer's instruction (Trevigen). Optical density (OD) is then measured at 490 nm and data is presented as percentage of reduction of cell proliferation of triplicate measurements. The data in Table 5 illustrate that the antibody variants have an anti-proliferative effect on lymphoma cells. Furthermore, the antibody variants sensitize the lymphoma cell line to Doxorubicin, a cytotoxic drug commonly used in the treatment of cancer for companion animals.
The antibody variants of the present invention are further tested for their ability to alter proliferation of lymphoma cells. Cell assays are conducted as described in the example above. Data is presented in Table 6 as percentage of reduction of cell proliferation of triplicate measurements.

recombinant canine CD20 = target: T1, recombinant canine CD20; experiment: Competition experiments (epitope mapping) on CHO cells expressing recombinant canine CD20; assay type: binding
Experimental: Competition experiments are performed using standard techniques. Briefly, biotinylated recombinant anti-canine CD20 antibodies are titrated on CHO cells expressing recombinant canine CD20. Cells are first incubated with an excess of unlabelled recombinant anti-canine CD20 antibody (25 μg/mL). Thereafter, cells are incubated with a biotin-labeled antibody at 2 μg/mL. After washing, cells are incubated with streptavidin- phycoerythrin and fluorescence is analyzed by flow cytometry. An irrelevant antibody is used as negative control for inhibition. Results are expressed as a ratio between fluorescence intensity of the cells pre-incubated with the unlabelled antibody and the fluorescence intensity obtained for each biotinylated antibody alone. The percentage of inhibition (PI) is calculated by the following formula: PI=[1−(Experimental-Background)/Biotinylated antibody alone−Background)]×100%.

Control Cells = experiment: FACS binding to control cells; details: antibody 2.5 μg/mL
Experimental: (§1) In the present example, the antibody variants (2.5 μg/mL) are incubated with mammalian cells expressing the recombinant feline CD20 or canine CD20 or control cells. The amount of bound antibody is assessed by detection with a fluorescent-labeled reporter antibody reagent. Several controls are utilized to determine the background fluorescence: (i) CD20 expressing cells are incubated with the conjugated secondary antibody with an isotype antibody, and (ii) Control cells are incubated with the anti-CD20 antibodies.

[1] = system: feline CD20 expressed in mammalian cells; experiment: FACS binding to cells expressing recombinant feline CD20; details: antibody 2.5 μg/mL
Sequence of feline CD20 expressed in mammalian cells (as listed by the source): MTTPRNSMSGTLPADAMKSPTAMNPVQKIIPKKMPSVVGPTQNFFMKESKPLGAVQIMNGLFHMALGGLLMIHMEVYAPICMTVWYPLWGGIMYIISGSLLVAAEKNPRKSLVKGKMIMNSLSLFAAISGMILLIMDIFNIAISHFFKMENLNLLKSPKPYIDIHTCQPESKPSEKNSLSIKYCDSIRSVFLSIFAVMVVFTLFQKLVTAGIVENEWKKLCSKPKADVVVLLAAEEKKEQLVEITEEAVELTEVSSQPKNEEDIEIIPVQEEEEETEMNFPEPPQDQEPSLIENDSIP
Experimental: as §1, with “The binding of the antibody variants of the present invention raised to canine CD20 can be assessed by FACS analysis for their binding to feline CD20 according to standard immunological techniques (see Veterinary Immunology and Immunopathology 2005, 106:179-196; Brousseau et al., Manual of Immunology Methods, CRC Press, 1998). In” for “In”

[2] = target: T2, recombinant canine CD20 expressed in HEK cells; experiment: FACS binding to cells expressing recombinant canine CD20
Experimental: as §1, with “The binding of the antibody variants of the present invention raised to canine CD20 can be assessed by FACS analysis for their binding to feline CD20 according to standard immunological techniques (see Veterinary Immunology and Immunopathology 2005, 106:179-196; Brousseau et al., Manual of Immunology Methods, CRC Press, 1998). In” for “In”

Molecule | percentage of reduction of cell proliferation, Doxorubicin 6.6 nM (lymphoma cells) | percentage of reduction of cell proliferation, Doxorubicin 66 nM (lymphoma cells) | percentage of reduction of cell proliferation, Doxorubicin 0 nM (lymphoma cells) | epitope of canine CD20 (in words) (recombinant canine CD20; conclusion from Table 7) | percentage of inhibition (PI), labeled antibody CD20-1 (recombinant canine CD20; unlabelled competitor 25 μg/mL, biotin-labeled CD20-1 2 μg/mL) | percentage of inhibition (PI), labeled antibody CD20-2 (recombinant canine CD20; unlabelled competitor 25 μg/mL, biotin-labeled CD20-2 2 μg/mL) | percentage of inhibition (PI), labeled antibody CD20-5 (recombinant canine CD20; unlabelled competitor 25 μg/mL, biotin-labeled CD20-5 2 μg/mL) | mean fluorescence, Control Cells (Control Cells) | mean fluorescence, Feline CD20 [1] | binding to recombinant canine CD20 (in words) [2] | mean fluorescence, Canine CD20 ([2]; antibody 2.5 μg/mL)
B1 | 58.63% | 64.88% | 40.48% |  |  |  |  |  |  |  | 
B2 | 65.77% | 76.79% | 59.82% |  |  |  |  |  |  |  | 
B3 |  |  |  | recognize different epitopes | 6.03% | 1.41% | 5.99% | 4 mean fluorescence units | 60 mean fluorescence units | effective binding | 2107 mean fluorescence units
